In the supplement of paper PMC12042874 one finds amyloid nucleation score data, which are given here for 101 substances.

± gives the uncertainty stated by the source.

The data set can be described thus: amyloid nucleation score (Sup35N fusion, yeast selection) (log enrichment); library NNK1; higher = more nucleation; inactive = no reads after selection. Put shortly:
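For the nucleation score, DiMSum gave the log enrichment of output over input reads, centred on the mode score of non-aggregating sequences. Psi-negative yeast expressing Sup35N fused to peptides of 20 random codons were induced with 100 μM copper sulfate for 24 hours and grown 7 days at 30°C on medium lacking adenine and uracil. Input and output plasmid inserts were Illumina-sequenced, and sequences with under 100 input reads were excluded.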
In the case of NWHGSLKPPYACEGALRVWR, the amyloid nucleation score was 6.26 ± 0.08.
The figure for NWRSTLVSCLVYLPVLCCRC is 5.31 ± 0.058.
With NWYVVYSWSEQIYREDSMGT, the amyloid nucleation score is -0.52 ± 0.71.
In the case of NWYYRWELFVACFYLYSGWE, the amyloid nucleation score entry was “inactive”.
The figure for NYAQVLRTSFTNGVLTLKEE is -0.526 ± 0.86.
For NYFAIPCFESWSWRMYKVGF, the amyloid nucleation score turned out to be 0.186 ± 0.9.
The figure for NYFEKR is -0.261 ± 0.47; for NYFFAAACKKVVQGQPCSF it is 1.59 ± 0.29.
Then NYFIVLSR, with 2.09 ± 0.43; and NYFTVCLKGVRSDPPSVAKG, with -0.596 ± 0.4.
NYILFWRTSSNFECPYP displayed an amyloid nucleation score of 0.181 ± 0.24.
As for NYLLWVAHPIVSY, the amyloid nucleation score is -0.502 ± 0.34.
As for NYNTIWMMKWFNGRWFLSAV, the amyloid nucleation score was -0.293 ± 0.94.
As to PAHKLILFPPCCVGVWYSER, the amyloid nucleation score entry is “inactive”.
Turning to PALFVCSSFKLFMPNILGNQ, the amyloid nucleation score was 6.16 ± 0.063.
The substance PALWDLCVPKLIVANLIERS showed an amyloid nucleation score of -1.1 ± 1.4.
As to PALWWSMYSIQCPEEIGGAV, the amyloid nucleation score turned out to be 0.405 ± 0.55.
The figure for PAVFCW is 0.387 ± 0.48; for PCINRFHGIGFHCRLWTVYV it is 0.816 ± 0.98; for PCIVKYRNSGLHNYRIRLNR it is -1.12 ± 0.97.
On to PCTMGMYIGAGHR, for which the amyloid nucleation score was found to be 0.418 ± 1.
Then PCYRLWLVSAWAVTQEFTSW, with 1.35 ± 0.14.
Substance PDHLTIQSCDARYGFASQL displayed an amyloid nucleation score of 1.78 ± 0.47.
The figure for PDMCQERNYCELYPCKARAT is -0.612 ± 0.41.
Then PDSCIENLDMWYTFNGDNDT, with -0.828 ± 0.3.
Then PDSTVARVDVSPELIFCLKS, with -0.708 ± 0.6; and PDTYRLWRWSCIFEKCCDEG, with -0.194 ± 0.41.
For PEDFHNLFLKINGYLSYAFV, the amyloid nucleation score is -1.54 ± 1.1.
The entry for PFTCCAVVPFSVTFSRVLES is “inactive”; for PFTNQPMSPARHLFI it is -1.88 ± 2.4.
PGFPNLVTSRTLIVCQL: the amyloid nucleation score entry was “inactive”.
PGLFYETDHVASVVVCKSPH returned an amyloid nucleation score of -0.231 ± 0.45.
Then PIFLGLFDDRYMG, with 0.116 ± 0.45; and PIIILFL, with 1.15 ± 0.54; and PILCGTSLSQINDYYGV, with -0.369 ± 0.56.
In turn, PITMQSMSFFRRVLLVFFLY returned an amyloid nucleation score of 0.813 ± 0.5.
Then PKCLNESMVGRRWLAIMGRV, with 0.328 ± 0.72; and PLAAYCSVDYGQKIQIATVP, with -0.541 ± 0.42; and PLAMNSFVIVIDGRLHVLGD, with 4.72 ± 0.12.
Then PLLEATNCDLHGLVRLLMRF, with 0.651 ± 0.72; and PLPPLVMLPQ, with -0.481 ± 0.8; and PLPVNPYPTHATIGWPRISG, with -0.427 ± 0.55.
In the case of PLSVFTTPPSDHCDIKGKIE, the amyloid nucleation score was -0.852 ± 2.1.
With PLVCRGLLSRCGNPSGKCGR, the amyloid nucleation score is -0.125 ± 1.7.
Then PLVNVYSSAYYSRHLKGLCV, with -0.782 ± 0.69; and PLVSTHALSAGILYCFKFYR, with 5.57 ± 0.097; and PMFWRYILFSANNEPQFIRQ, with 0.073 ± 0.24.
Then PMLGGRESEEPRVGWKVGWV, with 0.377 ± 0.27; and PMSGVGYGRMRLSAAWPVDK, with -0.604 ± 0.78; and PMSRIKWILLSGLSKGLSYG, with 2.41 ± 0.17.
The figure for PMTKCMLSSLGWCAHVPVRE is 0.369 ± 0.52; for PMVIYNFEFNFGVSSDRIYA it is 4.35 ± 0.15.
Regarding PNFWVRFKYGYLSSLNSRTV, the amyloid nucleation score is -0.375 ± 0.52.
PNTLYSLTIIMSARLNSSLL returned an amyloid nucleation score of 0.371 ± 0.57.
Then PPGIRAYM, with -0.036 ± 0.35; and PPSLQ, with -0.263 ± 1.4; and PPVHSDFKWAFVWVQLVWRG, with -0.016 ± 0.53.
As for PQALGSTHLQTRRDQHVIF, the amyloid nucleation score was -0.046 ± 0.53.
PRGLVWNVPRLSKTVASILF showed an amyloid nucleation score of -0.942 ± 0.73.
Then PRLLLGAHQSYLGACSAGYM, with 1.06 ± 0.71; and PRPQLPVKYLYSRLIGETCG, with 3.25 ± 0.071; and PRWSLCIPSVLSGVITTIMT, with 0.286 ± 0.27.
PSCILMNLEVYND: the amyloid nucleation score came to 0.827 ± 0.42.
The entry for PSCRC is “inactive”; for PSFRWIGSEMSTMFMLQVTL it is 0.058 ± 0.55; for PSHFHHQ it is 0.305 ± 0.32.
PSQHSIPLLTQVYVLL had an amyloid nucleation score of 5.54 ± 0.059.
Then PSRLIYDYAAFTVVGLLEMF, with -0.235 ± 0.56; and PSSACCGSHFLCEQEFMICY, with 0.146 ± 0.71; and PSYHSRPRSPYGNIEYKEHR, with 0.46 ± 0.36.
The figure for PTDMPGHVTMSRGSCLEWVL is 0.355 ± 0.36; for PTGSYKAGSSSSLVYPFED it is -0.062 ± 0.52; for PTHDILFVTDSLTAKANDMV it is -0.189 ± 0.32.
In turn, PTIKRGTVGFNWVGRACSGK showed an amyloid nucleation score of -0.529 ± 0.57.
Then PTPEANAIKGLYQRGNCVYG, with -0.515 ± 1.
The substance PTRCQVWLGGTLHVRVVDLS had an amyloid nucleation score of -0.424 ± 0.4.
The figure for PTRLPYGTSLIWDTSHANWG is -0.706 ± 0.59; for PVMLF it is 4.33 ± 0.11; for PVQLRFRSSNIWTLMNQVFI it is 0.612 ± 0.95.
Then PVRSL, with -0.515 ± 0.48; and PVYMGIAALYGPGCLTLLTV, with 2.07 ± 0.3.
As for PWACSTSRSMLPSSSLPALM, the amyloid nucleation score turned out to be 0.814 ± 0.66.
For PWITCCKVNGIFLTDRCRVV, the amyloid nucleation score was determined as 0.574 ± 0.3.
Then PWRAGYGRRKLLSEGDFRLS, with 0.218 ± 0.62.
The figure for PWYDRPRVSYSAFLVWIQLH is -0.417 ± 0.93; for PYIVKVCGCDPLVHLFI it is 0.608 ± 0.23; for PYKGIVMFVSGPP it is -0.068 ± 0.54.
Then PYLTICKIDYFYYLGRDSFF, with 4.47 ± 0.055.
For QCAYGWFRIIVITRFFCEDS, the amyloid nucleation score was -0.701 ± 0.37.
The figure for QCCLNVLDC is 7.65 ± 0.084; for QCSMGGRYVRQDS it is -0.197 ± 0.6; for QDDISLKFLGFGMIVSLIMF it is 0.007 ± 0.24.
With QDRPYVFY, the amyloid nucleation score is -0.331 ± 0.44.
As for QECMKLNLAFYWSDCVVRSF, the amyloid nucleation score was found to be 1.76 ± 0.49.
Then QFLLLPGNHHRFRSRHIRTL, with -0.255 ± 0.26.
The figure for QFVSLKFRVGLATS is 0.045 ± 0.95; for QGLGALMVRSFSFYLFVW it is -0.241 ± 1.4; for QIIKENFRRSY it is 2.45 ± 0.55.
The figure for QIRLYSSGWMFGCAAYVVSM is 0.853 ± 0.41; for QISNRYPLVRPTLLFCGFPF it is -0.224 ± 0.4.
In the case of QKDSTPISGWFSFYMSVPFK, the amyloid nucleation score result was “inactive”.
